Biological target: pre-translocation (PRE) complex of the E. coli 70S ribosome (E. coli) (UniProt P0A7K2)
Experiment: stopped-flow fluorescence and FRET kinetics, global fit by numerical integration; PRE complexes (0.05 uM, six fluorescence reporters) mixed with saturating EF-G (4-5 uM), 1 mM GTP, 200 uM fusidic acid; buffer A (50 mM Tris-HCl pH 7.5, 70 mM NH4Cl, 30 mM KCl, 7 mM MgCl2), 37 °C; 5-step model, k-1/k1 constrained to 65/55 uM; KinTek Explorer

- kon: 4.2e+07 M⁻¹ s⁻¹
Substance: elongation factor G (from UniProt P0A6M8 1-704) (enzyme)

— publication PMC5585275
